# Key:
# [1] = molecular target: the molecule itself; assay: FRET or BRET; donor- and acceptor-labeled cGAS^FL with 72-bp dsDNA, with or without Mn^2+ and/or Apcpp/Gpcpp (Supplementary Figure S2A)
# [2] = molecular target: the molecule itself; assay: SEC; size-exclusion chromatography of cGAS^FL variants (Supplementary Figure S2B)
protein,measurement,setting,value
"TAMRA- or Cy5-labeled cGAS^FL (1:1 mixture of donor- and acceptor-labeled populations) (enzyme, human, UniProt Q8N884 2-522, looked up, TAMRA or Cy5 label (site not stated)) QPWHGKAMQRASEAGATAPKASARNARGAPMDPTESPAAPEAALPKAGKFGPARKSGSRQKKSAPDTQERPPVRATGARAKKAPQRAQDTQPSDATSAPGAEGLEPPAAREPALSRAGSCRQRGARCSTKPRPPPGPWDVPSPGLPVSAPILVRRDAAPGASKLRAVLEKLKLSRDDISTAAGMVKGVVDHLLLRLKCDSAFRGVGLLNTGSYYEHVKISAPNEFDVMFKLEVPRIQLEEYSNTRAYYFVKFKRNPKENPLSQFLEGEILSASKMLSKFRKIIKEEINDIKDTDVIMKRKRGGSPAVTLLISEKISVDITLALESKSSWPASTQEGLRIQNWLSAKVRKQLRLKPFYLVPKHAKEGNGFQEETWRLSFSHIEKEILNNHGKSKTCCENKEEKCCRKDCLKLMKYLLEQLKERFKDKKHLDKFSSYHVKTAFFHVCTQNPQDSQWDRKDLGLCFDNCVTYFLQCLRTEKLENYFIPEFNLFSSNLIDKRSKEFLTKQIEYERNNEFPVFDEF",binding result,[1],binds
"human full-length cGAS (cGAS^FL), wild-type (enzyme, UniProt Q8N884 2-522, looked up) QPWHGKAMQRASEAGATAPKASARNARGAPMDPTESPAAPEAALPKAGKFGPARKSGSRQKKSAPDTQERPPVRATGARAKKAPQRAQDTQPSDATSAPGAEGLEPPAAREPALSRAGSCRQRGARCSTKPRPPPGPWDVPSPGLPVSAPILVRRDAAPGASKLRAVLEKLKLSRDDISTAAGMVKGVVDHLLLRLKCDSAFRGVGLLNTGSYYEHVKISAPNEFDVMFKLEVPRIQLEEYSNTRAYYFVKFKRNPKENPLSQFLEGEILSASKMLSKFRKIIKEEINDIKDTDVIMKRKRGGSPAVTLLISEKISVDITLALESKSSWPASTQEGLRIQNWLSAKVRKQLRLKPFYLVPKHAKEGNGFQEETWRLSFSHIEKEILNNHGKSKTCCENKEEKCCRKDCLKLMKYLLEQLKERFKDKKHLDKFSSYHVKTAFFHVCTQNPQDSQWDRKDLGLCFDNCVTYFLQCLRTEKLENYFIPEFNLFSSNLIDKRSKEFLTKQIEYERNNEFPVFDEF",stoichiometry N,[2],2
"K173E/R176E-cGAS^FL (enzyme, human, UniProt Q8N884 2-522, looked up) QPWHGKAMQRASEAGATAPKASARNARGAPMDPTESPAAPEAALPKAGKFGPARKSGSRQKKSAPDTQERPPVRATGARAKKAPQRAQDTQPSDATSAPGAEGLEPPAAREPALSRAGSCRQRGARCSTKPRPPPGPWDVPSPGLPVSAPILVRRDAAPGASKLRAVLEKLELSEDDISTAAGMVKGVVDHLLLRLKCDSAFRGVGLLNTGSYYEHVKISAPNEFDVMFKLEVPRIQLEEYSNTRAYYFVKFKRNPKENPLSQFLEGEILSASKMLSKFRKIIKEEINDIKDTDVIMKRKRGGSPAVTLLISEKISVDITLALESKSSWPASTQEGLRIQNWLSAKVRKQLRLKPFYLVPKHAKEGNGFQEETWRLSFSHIEKEILNNHGKSKTCCENKEEKCCRKDCLKLMKYLLEQLKERFKDKKHLDKFSSYHVKTAFFHVCTQNPQDSQWDRKDLGLCFDNCVTYFLQCLRTEKLENYFIPEFNLFSSNLIDKRSKEFLTKQIEYERNNEFPVFDEF",stoichiometry N,[2],2

# Reference: article PMC7192592 (Nucleic Acids Research, 2020)
